Assay results from patent US20080279957A1, “Immunomodulating compositions from bile” (Lorus Therapeutics Inc., priority 2000, published 2008).

Key:
[1] = test system: tumor cells (monocyte cytotoxicity assay); test: Effect of indomethacin on tumoricidal function of cancer patients' monocytes (Example 15); conditions: for regulation of tumoricidal function by an indomethacin-sensitive function: indomethacin up to 5 ng/ml
[2] = test system: mouse hybridoma cell line HYB #6-1; test: Antiproliferative bioassay in mouse hybridoma cells (Example 4); format: cell-based; conditions: procedure of Example 4
Protocol: The bioassay is carried out as follows. […] Hybridoma cell samples are specifically quantitated. Using a hemocytometer the calls in a 100 μl sample are counted. The cells are concentrated by centrifugation and then cell concentration is adjusted to 1,000 cells/ml (twice the final desired concentration) by addition of appropriate volumes of fresh media. […] After 96 hours, each well is sampled at 100 μl×3 and placed in a 96 well plate. (A blank of 100 μl of medium without cells is included.) Cell density is determined using a PROMEGA CellTiter 96 kit. Cell concentration is measured by reading absorbance at 595 nm (650 nm reference) and recorded by ELISA plate reader. For each assay, a standard curve of cell concentration is prepared. Cultured cells in the log phase of growth are sampled, counted, concentrated and resuspended in serial dilutions. Each dilution is sampled at 100 μl×3 and placed in a 96 well plate. The standard curve is constructed by plotting cell density versus “net” OD at 595 nm after subtraction of zero cell blanks and OD at 650 nm. Cell density of unknown samples is determined by interpolation.

[3] = test system: tumor cells (monocyte cytotoxicity assay); test: Tumor cytotoxicity of peritoneal macrophages from patients with gynecological disease (Example 14); format: cell-based, human; conditions: Monocyte/Tumor Cell ratio 15/1; 7 patients (3 benign, 4 malignant); composition 1:10 of batch 222, gamma interferon 100 U/ml, interleukin-12 500 U/ml, monocyte-CSF 500 U/ml
Excerpt: Immunother 32:55-61, 1990.

[4] = test system: tumor cells (monocyte cytotoxicity assay); test: Tumor cytotoxicity of peripheral blood monocytes from patients with gynecological disease (Example 14); conditions: Monocyte/Tumor Cell ratio 15/1; 7 patients (3 benign, 4 malignant); composition 1:10 of batch 222, gamma interferon 100 U/ml, interleukin-12 500 U/ml, monocyte-CSF 500 U/ml
Excerpt: More particularly, the patient population consisted of 7 patients, 3 with benign disease and 4 with malignant disease (2 ovarian cancers, 1 endometrial cancer, and 1 cervical cancer). Samples were removed from patients at the time of surgical procedure.

lymphocytes = test: Stimulation of lymphocyte DNA synthesis; format: cell-based, human; conditions: optimal stimulating concentration of PHA
Protocol: These indicators of immune function also can be modulated in cancer patients who are treated with different biological response modifying agents such as interferon or interleukin-2.
1) Stimulation of Lymphocyte DNA Synthesis: Comparison with an Optimal Stimulating Concentration of Phytohemagglutinin (PHA)

For “granulocyte macrophage colony stimulating factor [GM-CSF]”, the “regulation of tumoricidal function by an indomethacin-sensitive function” value (from here on “regulation of tumoricidal function”) [1] was “regulated by an indomethacin-sensitive function”.

With `N.O` [sample (2), NH3.H2O] the “anti-proliferative activity, in words” value [2] was “Neither sample (1) nor sample (2) had any detectable anti-proliferative effect”.

In the case of `CCCCCCCCCCCCCC(=O)O[C@@H]1[C@@H](C)[C@@]2(O)[C@@H](C=C(CO)C[C@]3(O)C(=O)C(C)=C[C@@H]23)[C@@H]2C(C)(C)[C@]12OC(C)=O` [Phorbol Ester (PNA)], the “regulation of tumoricidal function” value [1] is reported as “not regulated by an indomethacinsensitive function”.

With interleukin-12 [IL-12] the “% Tumor Cytotoxicity (+/−S.E.) Peritoneal Macrophage” value [3] was 8.5 ± 2%, the “regulation of tumoricidal function” value [1] was “not regulated by an indomethacinsensitive function” and the “% Tumor Cytotoxicity (+/−S.E.) Peripheral Blood” value [4] was 26.0 ± 4%.

gamma interferon [IFN-γ] was tested, and the “regulation of tumoricidal function” value [1] was “regulated by an indomethacin-sensitive function”.

In the case of Phytohemagglutinin [PHA], the “Stimulation of lymphocyte DNA synthesis” value (lymphocytes) is reported as 125,817 Counts per Minute.

For `C[C@H](CCC(=O)NCCS(=O)(=O)O)[C@H]1CC[C@H]2[C@@H]3[C@H](O)C[C@@H]4C[C@H](O)CC[C@]4(C)[C@H]3C[C@H](O)[C@]12C` [sample (1), taurocholic acid], the “anti-proliferative activity, in words” value [2] was “Neither sample (1) nor sample (2) had any detectable anti-proliferative effect”.

B1: gamma interferon (protein, UniProt P01579 24-161, looked up)
Interferon gamma: QDPYVKEAENLKKYFNAGHSDVADNGTLFLGILKNWKEESDRKIMQSQIVSFYFKLFKNFKDDQSIQKSVETIKEDMNVKFFNSNKKKRDDFEKLTNYSVTDLNVQRKAIHELIQVMAELSPAAKTGKRKRSQMLFRG
B1 was tested, and the “% Tumor Cytotoxicity (+/−S.E.) Peritoneal Macrophage” value [3] was 9.5 ± 1% and the “% Tumor Cytotoxicity (+/−S.E.) Peripheral Blood” value [4] was 18.3 ± 2%.

B2: monocyte-CSF (protein, UniProt P09603 33-554, looked up)
Macrophage colony-stimulating …: EEVSEYCSHMIGSGHLQSLQRLIDSQMETSCQITFEFVDQEQLKDPVCYLKKAFLLVQDIMEDTMRFRDNTPNAIAIVQLQELSLRLKSCFTKDYEEHDKACVRTFYETPLQLLEKVKNVFNETKNLLDKDWNIFSKNCNNSFAECSSQDVVTKPDCNCLYPKAIPSSDPASVSPHQPLAPSMAPVAGLTWEDSEGTEGSSLLPGEQPLHTVDPGSAKQRPPRSTCQSFEPPETPVVKDSTIGGSPQPRPSVGAFNPGMEDILDSAMGTNWVPEEASGEASEIPVPQGTELSPSRPGGGSMQTEPARPSNFLSASSPLPASAKGQQPADVTGTALPRVGPVRPTGQDWNHTPQKTDHPSALLRDPPEPGSPRISSLRPQGLSNPSTLSAQPQLSRSHSSGSVLPLGELEGRRSTRDRRSPAEPEGGPASEGAARPLPRFNSVPLTDTGHERQSEGSFSPQLQESVFHLLVPSVILVLLAVGGLLFYRWRRRSHQEPQRADSPLEQPEGSPLTQDDRQVELPV
In the case of B2, the “% Tumor Cytotoxicity (+/−S.E.) Peritoneal Macrophage” value [3] is reported as 7.0 ± 2%, the “regulation of tumoricidal function” value [1] is reported as “regulated by an indomethacin-sensitive function” and the “% cytotoxicity” value ([1]; peripheral blood monocytes from cancer patients, activator alone or with indomethacin (up to 5 ng/ml) added simultaneously) is reported as 14.1 ± 3%. For the same molecule, the “% Tumor Cytotoxicity (+/−S.E.) Peripheral Blood” value [4] was 16.0 ± 2%.
